Results from paper doi:10.1101/2023.10.09.561517 (bioRxiv, 2023).
Values joined by “and” are separate entries in the source; they are usually repeats but may differ in a detail not shown here. Identical values can stand only once.

Assays:
CaMKIIα hub domain = test: mass photometry
[1] = biological target: CaMKIIβ full-length hub domain (residues 534-666) (human); test: crystal structure
[2] = biological target: CaMKIIβ full-length hub domain (residues 534-666) (human); test: crystal structure; remark: listed apart in the source
[3] = biological target: CaMKIIβ full-length hub domain (residues 534-666) (human); test: mass photometry
[4] = biological target: CaMKIIβ full-length hub domain (residues 534-666) (human); test: mass photometry; remark: listed apart in the source
SEC-MALS = biological target: the molecule itself; test: SEC-MALS

## CaMKIIα hub domain (domain or fragment)
CaMKIIα hub domain
  stoichiometry N: 16

## CaMKIIβ full-length hub domain (residues 534-666) (domain or fragment)
[1]
  stoichiometry N: 16
[2]
  stoichiometry N: 14
[3]
  stoichiometry N: 12 and 14 and 16
[4]
  stoichiometry N: 14 and 16

B1: CaMKIIβ hub dimer variant (F585A + L622M) (domain or fragment, human, UniProt Q13554 534-666, looked up)
chain: RKQEIIKTTEQLIEAVNNGDFEAYAKICDPGLTSFEPEALGNLVEGMDFHRAYFENLLAKNSKPIHTTILNPHVHVIGEDAACIAYIRMTQYIDGQGRPRTSQSEETRVWHRRDGKWQNVHFHCSGAPVAPLQ
SEC-MALS
  stoichiometry N: 2
